Results reported in the supplement of paper PMC9170038.

Assays:
MS2 coat protein [1] = experiment: apparent KD of MS2 coat protein; designed switch direction (-1 OFF switch, 1 ON switch): -1; higher = weaker reporter binding; conditions: Eterna round: R98
Description: (§1)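 RNA-MaP: designed FMN/MS2 RNA switches (84 nt design region) are transcribed on-chip within common flanks and titrated with SNAP-549-labelled MS2 coat protein (about 1-3000 nM) in 100 mM Tris pH 7.5, 80 mM KCl, 4 mM MgCl2, without or with 200 uM FMN. Median apparent KD per design; activation ratio = KD,OFF / KD,ON.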

MS2 coat protein [2] = experiment: apparent KD of MS2 coat protein; higher = weaker reporter binding; conditions: Eterna round: R101
Description: as §1

Row | Sequence | apparent KD of MS2 coat protein (MS2 coat protein [1]; input ligand: FMN 200 uM) | apparent KD of MS2 coat protein (MS2 coat protein [1]; input ligand: none) | apparent KD of MS2 coat protein (MS2 coat protein [2]; input ligand: FMN 200 uM) | apparent KD of MS2 coat protein (MS2 coat protein [2]; input ligand: none)
1 | AGGACAGGCAGAGCGCAACGGCGUACAUGAGGAUCACCCAUGUAGGAUAUACUACACAAAGUGUAGUAGAAGGACAUGCGACGC [Ex NG2 #88] | 45.6 nM | 16.1 nM |  | 
2 | AUGACAGGCAGAGCGCAACGGCGUACAUGAGGAUCACCCAUGUAGGAUAUACUACACAAAGUGUAGUAGAAGGACAUGCGACGC [Ex NG2 #87] | 34.4 nM | 23.2 nM |  | 
3 | AUGACAGGCAGAGCGCAACGGCGUACAUGAGGAUCACCCAUGUAGGAUAUACUACACAAAGUGUAGUAGAAGGACAUGCGACGG [Ex NG2 #89] | 69 nM | 35.8 nM |  | 
4 | CCAUAAAAGAUCCAUUUUUACAACAUGAGGAUCACCCAUGUGCAGGAUAUCGUGAAAGUUAAAUACGAGAAGGGCAAGAACUGC [JR_ExcNG3_Sub050] | 104 nM | 105 nM |  | 
5 | CCUUUAAAGAUCCAAAAUUACAACAUGAGGAUCACCCAUGUGCAGGAUAUCGUGCCAGUGAUGUACGAGAAGGGCAGACUCUGC [salish99_ExNG3_r2_015] | 95.2 nM | 105 nM |  | 
6 | GGAGACCUUACAGGAUAUGCUGGACUUUGUCCAGCAGAAGGGUGAAAACAUGAGGAUCACCCAUGUAUGGUCUCCAAAUUUAAU [jl-ssng1-3.02 #GU_VS_GC_SWITCHING] (puzzle (switch architecture): Same State NG 1) |  |  | 21.2 nM | 19.1 nM
7 | GGGUACAUCGGAGGAUAUCAUGUAUAUACAUGAGGAUCACCCAUGUCGAUGGAGACAUCGGAGAUUGAGAAGGCCGAUGUACCG (puzzle (switch architecture): Same State NG 2) |  |  | 11.8 nM | 382 nM
8 | UAUAUAUAGGCAGGAUAUACAUGAAUAUAUAAUAUAAUAUAUAAUAUAACAUGAGGAUCACCCAUGUAGAAGGGCCAUAAUAUA [LRO031_Exclusion NG 2] | 109 nM | 48.6 nM |  | 
9 | UAUAUAUAGGCAGGAUAUACAUGUAUAUAUAAUUUUUUAUAUAUUAUUACAUGAGGAUCACCCAUGUAGAAGGGCCUUAUUAUA [LRO039_Exclusion NG 2] | 62.8 nM | 46.9 nM |  | 
10 | UAUUAUAUAUAGAAGGACAUGAGGAUCACCCAUGUCGCCGGGCCCGGGAAACCGGGCCCGGCCAUGUAGGAUAUAUAUAUGGUA [#This is a good prank 8] (puzzle (switch architecture): Inverted Exclusion NG 2) |  |  | 6.2 nM | 6.38 nM
11 | UGUUGUUACGCAGGAUAUUGCCAACAGGCAGUAGGAUAUCCGAAAGGAGAAGGAUCGCCAACAGGCGAGAAGGGCGGGUUAACA [pwkr exNG2 2xF7 2FMN.10.2] | 194 nM | 706 nM |  | 
